US20110010785A1, “PRODUCTS AND THEIR USE FOR THE DIAGNOSIS, PREVENTION AND/OR CARE OF HUMAN AND/OR ANIMAL PATHOLOGIES CHARACTERISED BY THE ANOMALOUS DEPOSITION OF B-AMYLOID AND/OR AMYLOID-LIKE SUBSTANCE IN HUMAN AND/OR ANIMAL ORGANS AND TISSUES, AND SCREENING METHOD FOR DETERMINING THE RISK OF SUCH PATHOLOGIES” (Fondazione I.R.C.C.S Istituto Neurologico "Carlo Besta", priority 2007, published 2011)

Biological target: T1, wild-type Aβ1-40 (Homo sapiens, UniProt P05067)
T1 construct: lipophile probe (4-dodecylaminocarbonylfluorene-9-ylmethylsuccinimidyl carbonate), non-protein purification handle (N); made in house; host or cells: chemical solid phase synthesis (no expression host)
Test: Inhibition of amyloidogenesis: hexapeptides co-incubated with wild-type Aβ1-40 (ultrastructural and histochemical study)
Assay type: biochemical
Settings: for effect on fibrillogenesis of Aβ1-40: co-incubated with wild-type Aβ1-40, equimolar or in excess (hexapeptide:Aβ1-40=5:1)
Method: For the ultrastructural investigation, 5 μl of suspension of wild-type Aβ1-40, mutated Aβ1-40 and their equimolar mixture were drawn at incubation times in the range of 1 hour-20 days, deposited on nickel screen covered with Formvar-Carbon for 5 minutes, negatively coloured with an over-saturated solution of uranyl and observed under electronic microscope (EM109 Zeiss). On the twentieth day of incubation, aliquots of the samples were centrifuged at 15,000 g for 15 minutes. The pellets thus obtained were fixed in 2.5% glutaraldehyde in phosphate buffer, pH 7.4, post-fixed in 1% osmium tetroxide, dehydrated in acetone and included in epoxy rein (Spurr, Electron Microscopy Sciences). Ultrafine sections (500 Å) were collected on copper screens, coloured with uranyl acetate and lead citrate and observed under the electronic microscope.
In order to verify if and in what measure the aggregates were constituted by amyloid, 5 μl of solution of each sample, for the different incubation times, was collected on polylysinated slides (Bio-Optical), coloured with Congo Red and examined with polarised light microscope (Nikon Eclipse E-800).
The two hexapeptides were co-incubated with wild-type Aβ1-40 at equimolar concentration or in excess (hexapeptide:Aβ1-40=5:1). The mixtures were prepared for the ultrastructural and histochemical study as described in example 2.

T1 sequence (P05067 672-711): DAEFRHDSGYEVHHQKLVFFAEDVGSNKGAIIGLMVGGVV

Row | Substance | effect on fibrillogenesis of Aβ1-40 | inhibitory activity on fibrillogenesis relative to wild-type hexapeptide (co-incubated with wild-type Aβ1-40, equimolar or 5:1)
1 | DAEFRH | inhibit the fibrillogenesis of Aβ1-40 | 
2 | DVEFRH [synthetic peptide, first six amino acids of Aβ with valine in place of alanine in position 2] | inhibit the fibrillogenesis of Aβ1-40 | more active than the corresponding wild-type
